Experimental data reported in patent publication US20200164059A1.
Like-named read-outs stand apart in the source and are kept apart here.

What was measured:
[1] = target: EBV gH/gL heterodimer, recombinant ectodomain (Epstein Barr virus)
[2] = target: EBV gH/gL heterodimer, recombinant ectodomain (Epstein Barr virus); experiment: BLI kinetics, pH 7.4, ligand gH/gL, analyte gp42 T175A; KD M x10^-9
[3] = target: EBV gH/gL heterodimer, recombinant ectodomain (Epstein Barr virus); experiment: BLI kinetics, pH 7.4, ligand CL40 Mab, analyte gH/gL; koff (1/s) x10^-3
[4] = target: EBV gH/gL heterodimer, recombinant ectodomain (Epstein Barr virus); experiment: BLI kinetics, pH 5.0, ligand CL40 Mab, analyte gH/gL; KA M^-1 x10^7
[5] = target: EBV gH/gL heterodimer, recombinant ectodomain (Epstein Barr virus); experiment: BLI kinetics, pH 7.4, ligand CL40 Mab, analyte gH/gL; kon (1/Ms) x10^5
[6] = target: EBV gH/gL heterodimer, recombinant ectodomain (Epstein Barr virus); experiment: BLI kinetics, pH 5.0, ligand CL40 Mab, analyte gH/gL; koff (1/s) x10^-3
[7] = target: EBV gH/gL heterodimer, recombinant ectodomain (Epstein Barr virus); experiment: BLI kinetics, pH 7.4, ligand CL40 Mab, analyte gH/gL; KD M x10^-9
[8] = target: EBV gH/gL heterodimer, recombinant ectodomain (Epstein Barr virus); experiment: BLI kinetics, pH 7.4, ligand CL40 Mab, analyte gH/gL; KA M^-1 x10^7
[9] = target: EBV gH/gL heterodimer, recombinant ectodomain (Epstein Barr virus); experiment: BLI kinetics, pH 5.0, ligand CL40 Mab, analyte gH/gL; KD M x10^-9
[10] = target: EBV gH/gL heterodimer, recombinant ectodomain (Epstein Barr virus); experiment: BLI kinetics, pH 5.0, ligand CL40 Mab, analyte gH/gL; kon (1/Ms) x10^5
[11] = target: gH/gL on EBV virions (Epstein Barr virus) (UniProt P03231); experiment: cell-based or functional assay
[12] = target: EBV gH/gL heterodimer, recombinant ectodomain (Epstein Barr virus); experiment: BLI kinetics, pH 7.4, ligand CL59 Mab, analyte gH/gL; koff (1/s) x10^-3
[13] = target: EBV gH/gL heterodimer, recombinant ectodomain (Epstein Barr virus); experiment: BLI kinetics, pH 7.4, ligand CL59 Mab, analyte gH/gL; kon (1/Ms) x10^5
[14] = target: EBV gH/gL heterodimer, recombinant ectodomain (Epstein Barr virus); experiment: BLI kinetics, pH 5.0, ligand CL59 Mab, analyte gH/gL; KA M^-1 x10^7
[15] = target: EBV gH/gL heterodimer, recombinant ectodomain (Epstein Barr virus); experiment: BLI kinetics, pH 7.4, ligand CL59 Mab, analyte gH/gL; KD M x10^-9
[16] = target: EBV gH/gL heterodimer, recombinant ectodomain (Epstein Barr virus); experiment: BLI kinetics, pH 7.4, ligand CL59 Mab, analyte gH/gL; KA M^-1 x10^7
[17] = target: EBV gH/gL heterodimer, recombinant ectodomain (Epstein Barr virus); experiment: BLI kinetics, pH 5.0, ligand CL59 Mab, analyte gH/gL; KD M x10^-9
[18] = target: EBV gH/gL heterodimer, recombinant ectodomain (Epstein Barr virus); experiment: BLI kinetics, pH 5.0, ligand CL59 Mab, analyte gH/gL; koff (1/s) x10^-3
[19] = target: EBV gH/gL heterodimer, recombinant ectodomain (Epstein Barr virus); experiment: BLI kinetics, pH 5.0, ligand CL59 Mab, analyte gH/gL; kon (1/Ms) x10^5
[20] = target: EBV gH/gL heterodimer, recombinant ectodomain (Epstein Barr virus); experiment: BLI kinetics, pH 7.4, ligand gH/gL, analyte gp42; KD M x10^-9
[21] = target: EBV gH/gL heterodimer, recombinant ectodomain (Epstein Barr virus); experiment: BLI kinetics, pH 7.4, ligand gH/gL, analyte gp42; kon (1/Ms) x10^5
[22] = target: EBV gH/gL heterodimer, recombinant ectodomain (Epstein Barr virus); experiment: BLI kinetics, pH 7.4, ligand gH/gL, analyte gp42; KA M^-1 x10^7
[23] = target: EBV gH/gL heterodimer, recombinant ectodomain (Epstein Barr virus); experiment: BLI kinetics, pH 7.4, ligand gH/gL, analyte gp42; koff (1/s) x10^-3
[24] = target: gp350 on EBV virions (Epstein Barr virus) (UniProt P03200); experiment: cell-based or functional assay

Substance: gp42 T175A, recombinant ectodomain
- Ka [1]: 4.85e+08 M⁻¹
- koff [1]: 0.000299 s⁻¹
- kon [1]: 145000 M⁻¹ s⁻¹
- Kd [2]: 2.06 nM

Substance: CL40 (antibody)
- koff [3]: 0.00318 s⁻¹
- Ka [4]: 1.67e+08 M⁻¹
- kon [5]: 469000 M⁻¹ s⁻¹
- koff [6]: 0.00356 s⁻¹
- Kd [7]: 6.77 nM
- Ka [8]: 1.48e+08 M⁻¹
- Kd [9]: 5.99 nM
- kon [10]: 594000 M⁻¹ s⁻¹
- concentration reducing B cell (Raji) infection to 50% [11]: 14.6 µg/mL
- fold decrease in fold potency against AMMO1, B cell (Raji) infection [11]: 100 fold

Substance: CL59 (antibody)
- koff [12]: 0.0028 s⁻¹
- kon [13]: 438000 M⁻¹ s⁻¹
- Ka [14]: 1.81e+08 M⁻¹
- Kd [15]: 6.39 nM
- Ka [16]: 1.57e+08 M⁻¹
- Kd [17]: 5.52 nM
- koff [18]: 0.00186 s⁻¹
- kon [19]: 337000 M⁻¹ s⁻¹

Substance: EBV gp42, recombinant ectodomain
- Kd [20]: 1.28 nM
- kon [21]: 224000 M⁻¹ s⁻¹
- Ka [22]: 7.84e+08 M⁻¹
- koff [23]: 0.000286 s⁻¹

Substance: 72A1 (antibody)
- neutralization of B95.8/F EBV infection of B (Raji) cells, IC50 [24]: 0.08 µg/mL
